# Source: patent US20080193973A1, “Bacillus Subtilis Strain and its Use in Preparing Pharmaceuticals for Treating Thrombosis” (CHENGDU DI'AO JIUHONG PHARMACEUTICAL, priority 2005, published 2008)
# Marks after values point to notes of the source that are not given here.
# B1: nattokinase of the invention: fibrinolysin produced by Bacillus subtilis Diao 1502; crude drug, luteous water-soluble powder, batch No. 20040617 (protein, UniProt P35835 107-381, looked up)
# Subtilisin NAT: AQSVPYGISQIKAPALHSQGYTGSNVKVAVIDSGIDSSHPDLNVRGGASFVPSETNPYQDGSSHGTHVAGTIAALNNSIGVLGVAPSASLYAVKVLDSTGSGQYSWIINGIEWAISNNMDVINMSLGGPTGSTALKTVVDKAVSSGIVVAAAAGNEGSSGSTSTVGYPAKYPSTIAVGAVNSSNQRASFSSVGSELDVMAPGVSIQSTLPGGTYGAYNGTSMATPHVAGAAALILSKHPTWTNAQVRDRLESTATYLGNSFYYGKGLINVQAAAQ
# B2: Nattokinase (NK): serine protease extracted from the traditional Japanese food Natto, 275 amino acids (background literature) (protein, UniProt P35835 107-381, looked up)
# Subtilisin NAT: B1 Subtilisin NAT
# Key:
# [1] = test system: carotid artery thrombosis in rats; experiment: carotid artery thrombosis test in rats (direct current stimulation, thrombus formation time); assay type: in vivo, SD rats
# Procedure: Experimental Apparatus: Experimental Intracorporeal Thrombosis Surveyor BT87-3, developed by the cardiovascular research department of Baotou Medical University of China.
# The carotid artery of test rats were separated 1 hour after the last intragastric administration or 15 minutes after intravenous injection according to the method prescribed in existing literature. Being stimulated continually with direct current (2 mA) for 7 minutes, the injuries of endarterium of carotid artery formed thrombosis gradually in test rats. The experimental apparatus would give an automatic alarm and record the time of thrombus formation when the blood vessels were blocked.
# [2] = weight and overt toxicity of test rats during 7 days of administration
# Procedure: Experimental Animal: 84 male SD rats weighing 250 to 320 g, purchased from the Animal Center of Henan Medical University of China.
# Eighty-four male SD rats were randomly assigned to seven experimental groups (12 rats each group) according to their body weight. The freeze-dried powder of nattokinase and positive drug aspirin were given to test groups and the control group was administered with 5% NaHCO3, by intragastric administration according to the dosage of 0.5 ml/100 g each day for 7 continuous days. The positive drug staphylokinase was given at the 7th day by intravenous injection.
# [3] = preliminary test of activity of nattokinase prepared by 5% NaHCO3 at room temperature; assay type: physicochemical; conditions: prepared by 5% NaHCO3, room temperature for 4 days
# Excerpt: Basis of Preparation: It has been reported that the nattokinase-like drugs are stable at pH values from 6.0 to 12.0 and unstable when to the PH value is below 5.0. Generally, the pH values of digestive tract are ranged from 0.9 to 1.5 in stomach, 6.0 to 6.8 in small intestine and 6.5 to 7.5 in colon. Therefore, the direct intragastric administration of drug containing nattokinase prepared with common solution adjuvant is unstable and easy to breakdown.
# [4] = test system: mice; experiment: acute toxicity test by intragastric administration in mice; assay type: in vivo
# [5] = temperature below 56 degree C. for 30 10 minutes; cited from earlier work
# [6] = enzyme (nattokinase) activity of fermentation broth or dried crude product; assay type: biochemical
# Excerpt: Although many kinds of fermentation techniques have been reported in existing literatures related to nattokinase from Bacillus subtilis, but the majority of the publicized strains have lower enzyme producing ability. On the other hand, other literatures describes some fermentation products from Bacillus subtilis that have higher enzyme producing ability, but it is difficult to evaluate the abilities of these publicized enzymes for the uncertainties of measuring conditions. The strain of Bacillus subtilis of the invention was fermented under the condition of temperature 30 to 40 degree C. and with the speed of 180 to 220 rpm for shaking bed, and the peak of enzyme production was obtained next day with enzyme activity of 1600 IU/ml and could be increased to 1697 IU/ml under optimized conditions. The enzyme activity of dried crude product could reach to 5000-10000 IU/g in solid fermentation of 10 kg supplies. […] Therefore, it has a very high industrial application value. So we think that the strain of Bacillus subtilis (No. Diao 1502) is a newly developed, different one in comparison with any Bacillus subtilis producing nattokinase reported in existing literatures.
# [7] = in vivo, po; cited from earlier work
molecule,measurement,setting,value
CC(=O)Oc1ccccc1C(=O)O [Aspirin],"Thrombus formation time, mean value","[1]; aspirin 40 mg/kg/day intragastric for 7 days, 1 hour after last administration",1379** second
same,Weight of test rats after 7 days of administration,[2]; aspirin 40 mg/kg/day intragastric,316 ± 20
same,Weight of test rats before administration,[2]; aspirin group (40 mg/kg/day intragastric),296 ± 15
B1,Activity after storage (in words),[3],no decrease in activity
same,Carotid artery thrombosis time compared with positive Aspirin (in words),[1]; groups of different dosages,no significant difference
same,"Thrombus formation time, mean value","[1]; high dosage 100 mg/kg in 5% NaHCO3, intragastric for 7 days",1309** second
same,Effect on carotid artery thrombosis time compared with negative control (in words),[1]; listed as NK prepared by 5% NaHCO3,apparent antithrombotic effects
same,Effect on carotid artery thrombosis time compared with negative control (in words),[1]; listed as freeze dried powder of nattokinase,prolonged significantly
same,"Thrombus formation time, mean value","[1]; low dosage 4 mg/kg in 5% NaHCO3, intragastric for 7 days",1237* second
same,"Thrombus formation time, mean value","[1]; middle dosage 20 mg/kg in 5% NaHCO3, intragastric for 7 days",1287* second
same,LD50,[4],higher than 6.0 g/kg
same,Activity after incubation (in words),[5],basically unchanged
same,Enzyme activity of fermentation broth,[6]; after optimization of fermentation condition,1697 IU/ml
same,Enzyme activity of fermentation broth,"[6]; liquid fermentation, before optimization",1600 IU/ml
same,Enzyme activity of dried crude product,"[6]; solid fermentation of 10 kg class, after drying",5000-10000 IU/g
same,Toxicity in rats (in words),"[2]; 7-day's intragastric administration, prepared with 5% NaHCO3",no apparent toxicity
B2,Time of peak value of fibrinolytic activity after taking the medicine,[7],4 h
same,Time till which certain activity was maintained,[7],8 h
